Measured values published in patent US20190351049A1 (Regeneron, published 2019).

B1: H2aM15287N (antibody, V domains shown)
VH: QLQLQESGPGLVKPSETLSLTCTVSGGSISSGNYYWGWIRQPPGKGLEWFGTIYYSGSTYYNPSLKSRVTISVDTSKNQFSLKLSSVTAADTAVYYCARRAAVGHFDYWGQGTLVTVSS
VL: DIQMTQSPSTLSASVGDRVTITCRASQSISTWLAWYQQKPGKAPKLLIYEASSLESGVPSRFSGSGFGTEFTLTISRLQPDDFATYFCQQYNTYWTFGQGTKVEIK
B2: H1M15267N (antibody, V domains shown)
VH: QVQLQESGPGLVKPSETLSLTCTVSGGSISSYYWSWIRQPPGKGLEWIGYIYYSGSPNYNPSLKSRVTISVDTSKNQFSLKLTSVTAADTAVYYCARSLNWGPPFDYWGQGTLVTVSS
VL: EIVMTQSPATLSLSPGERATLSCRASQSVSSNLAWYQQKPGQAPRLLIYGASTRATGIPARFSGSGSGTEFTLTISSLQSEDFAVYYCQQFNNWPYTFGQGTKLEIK
B3: H2aM15279N (antibody, V domains shown)
VH: EVQLLESGGGLVQTGGSLRLSCAASGFTFSNYAMSWVRQAPGKGLEWVSAISDRGGSIYYADSVKGRFTISRDNSKNTKYLQMDSLRAEDTAVYYCAQDRGFGVFDYWGQGTLVTVSS
VL: DIQMTQSPSSLSASVGDRVTITCQASQDIGNYLNWFQQRPGKAPNLLIYGASNLETGVPSRFSGGGSGTDFTFTISSLQPEDIATYFCQQYDNLPFTFGPGTKVEIK
B4: H1M15289N (antibody, V domains shown)
VH: QVQLQESGPGLVKPSETLSLTCTVSGGSISSYYWSWIRQPPGKGLEWIGYIYYSGSANYNPSLKSRVTISVDTSKNQFSLKLSSVTAADTAVYYCVRDRDLLLDHWGQGTLVTVSS
VL: EIVMTQSPATLSVSPGKRATLSCRASQSVSSNLAWYQQKPGQAPRLLIYGASTRTTGFPARFSGSGSGTDFTLTISSLQSEDFAVYYCQQYNNWPYTFGQGTMLEIK
B5: H1M15290N (antibody, V domains shown)
VH: QVQLVQSGAEVKKPGSSVKVSCKASGGTFSTYAISWVRQAPGQGLEWMGGIIPFFGTANYAQKFQGRVTITTDESTSTAYMELSSLRSEDTAVYYCAREGTYYDSLTGYYTHYYRMDVWGQGTTVTVSS
VL: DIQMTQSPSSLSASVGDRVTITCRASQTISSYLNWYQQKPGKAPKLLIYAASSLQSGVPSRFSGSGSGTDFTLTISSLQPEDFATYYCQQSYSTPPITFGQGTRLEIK
B6: H2bM15292N (antibody, V domains shown)
VH: QVQLVQSGAEVKKPGSSVKVSCKASGGTFNNYAISWVRQAPGQGLEWMGGIIPFFGTTNYAQKFQDRVTITSDDSTITAYMELSRLRSEDTAVYYCARDEPRRDGYNYYHYYYMDVWGQGTTVTVSS
VL: DIQMTQSPSSLSASVGDRVTITCRASQSINSYLNWYQQKPGKAPNLLIYAASSLQSGVPSRFSGSGSGTDFTLTISSLHPEDFATYYCQQSYSTPPITFGQGTRLEIK

Key:
[1] = biological target: T1, MERS RBD-hFc (MERS-CoV (isolate EMC/2012)); experiment: ELISA on coated MERS RBD-hFc, hybridoma supernatant 1:50, absorbance at 450 nm
[2] = biological target: T1, MERS RBD-hFc; experiment: SPR Biacore, captured mAb, 25 C
[3] = biological target: T1, MERS RBD-hFc; experiment: SPR Biacore, captured mAb, 37 C
[4] = biological target: T1, MERS RBD-hFc; experiment: SPR (Biacore), hybridoma supernatant antibody captured, MERS RBD-hFc as analyte

Binder | ELISA Binding [1] | Kd [2] | koff [2] | kon [2] | t1/2 [2] | Kd [3] | koff [3] | kon [3] | t1/2 [3] | Kd [4] | t½ [4]
B1 | 2.53 | 6.98 nM | 0.000442 s⁻¹ | 63300 M⁻¹ s⁻¹ | 0.433 h | 10.9 nM | 0.00189 s⁻¹ | 174000 M⁻¹ s⁻¹ | 0.1 h | 0.245 nM | ≥ 1.92 h
B2 | 2.62 | 0.181 nM | 0.000153 s⁻¹ | 843000 M⁻¹ s⁻¹ | 1.25 h | 0.314 nM | 0.000745 s⁻¹ | 2.37e+06 M⁻¹ s⁻¹ | 0.267 h | 0.328 nM | 1.57 h
B3 | 2.18 | 0.102 nM | 8.91e-05 s⁻¹ | 870000 M⁻¹ s⁻¹ | 2.17 h | 0.32 nM | 0.000445 s⁻¹ | 1.39e+06 M⁻¹ s⁻¹ | 0.433 h | 0.266 nM | 1.6 h
B4 | 2.73 | 0.21 nM | 4.41e-05 s⁻¹ | 210000 M⁻¹ s⁻¹ | 4.37 h | 0.275 nM | 0.000126 s⁻¹ | 459000 M⁻¹ s⁻¹ | 1.53 h | 0.669 nM | ≥ 1.92 h
B5 | 2.76 | 0.438 nM | 0.000211 s⁻¹ | 482000 M⁻¹ s⁻¹ | 0.917 h | 1.48 nM | 0.000984 s⁻¹ | 666000 M⁻¹ s⁻¹ | 0.2 h | 0.778 nM | 1.34 h
B6 | 2.78 | 0.34 nM | 0.000155 s⁻¹ | 457000 M⁻¹ s⁻¹ | 1.25 h | 0.963 nM | 0.000524 s⁻¹ | 544000 M⁻¹ s⁻¹ | 0.367 h | 0.593 nM | 1.13 h
